# According to US8324344B2, “Membrane transduction peptides and methods of delivering material to a target cell” (STC.UNM, priority 2008, dated 2012):
# “Also recorded” adds a separate entry of the source.
# Tests used:
# HT-1080 cells [1] = assay: Localization of protein in stably-transfected overexpressing HT-1080 cells, immunoblotting and immunocytochemistry; type: cell-based, human; settings: HT-1080 cells stably transfected with cDNA (FIG. 3, FIG. 4C, 4D)
# Experimental: HT-1080 and HEK 293 cell lines were stably transfected to overexpress either wild-type human TFPI-2 or a mutant TFPI-2 construct lacking the carboxy-terminal tail (TFPI-2^1-188), and were maintained as described (Chand et al., Blood, 2004;103:1069-1077, Du et al., Arch. Biochem. Biophys:, 2003;417:96-104). An anti-human TFPI-2 murine monoclonal antibody designated as SK-9 was prepared as described (Du et al., Arch. Biochem. Biophys., 2003;417:96-104) and coupled to Affi-Gel 10 according to the manufacturer's recommendation. Recombinant human TFPI-2 was purified from HEK 293 serum-free conditioned media by a two-step chromatography procedure involving heparin-agarose (Sprecher et al., Proc. Natl. Acad. Sci. USA., 1994;91:3353-3357) and SK-9-AffiGel 10 affinity chromatography. In the latter procedure, heparin-agarose purified TFPI-2 was dialyzed against 50 mM Tris-HCl (pH 7.5) and applied to the SK-9-AffiGel 10 column equilibrated at room temperature with this buffer. After a wash step with 50 mM Tris-HCl (pH 7.5)/0.5 M NaCl, TFPI-2 was eluted with 0.1 M glycine (pH 2.5)/0.5 M NaCl into one-tenth volume of 1 M Tris-HCl (pH 8.8) to immediately neutralize the pH 2.5 glycine. […]
# human tumor cell lines = settings: several tumor cell lines, exogenously offered; Kempaiah and Kisiel 2008; cited from earlier work
# importin-α = assay: Co-immunoprecipitation assay of TFPI-2 with importin-α from HT-1080 cell lysates; type: binding, human; settings: lysates of TFPI-2-treated (1 μM) HT-1080 cells or HT-1080 cells overexpressing TFPI-2; SK-9 or anti-importin-α antibody (FIG. 5)
# Excerpt: To identify the adapter protein(s) involved in transporting TFPI-2 to the nucleus, we performed co-immunoprecipitation studies using the PROFOUND co-immunoprecipitation kit and cell lysates derived from either vehicle-treated HT-1080 cells, TFPI-2-treated HT-1080 cells or HT-1080 cells overexpressing TFPI-2. Approximately 4.5×10^6 cells from each system were washed twice with PBS, and the lysates prepared in the presence of proteinase inhibitors using the mammalian protein extraction reagent provided in the kit. Complexes of importin-α and TFPI-2 were removed from the lysate by co-immunoprecipitation according to the manufacturer's instructions. In this procedure, antibodies specific for either importin-α or TFPI-2 (SK-9) were covalently linked at room temperature for 16 hours to an amine-reactive gel in coupling buffer (8 mM sodium phosphate/2 mM potassium phosphate/10 mM KCl/140 mM NaCl [pH 7.4]). Cell lysates from the above preparations were added to the antibody-coupled columns and incubated at 4° C. for 18 hours with gentle end-over-end mixing. The columns were then washed several times with coupling buffer containing 0.5 M NaCl to remove non-specifically bound proteins, and finally eluted with the elution buffer provided in the kit. […]
# HT-1080 cells [2] = assay: Internalization of offered recombinant proteins in HT-1080 cells, immunoblotting of cytosolic and nuclear fractions; type: cell-based, human; settings: 1 μM
# Experimental: HT-1080 cells were grown in six-well plates under standard conditions. At confluence, the cells were treated with fresh medium containing either wild-type TFPI-2, TFPI-2^1-188, R24Q KD1, R24K KD1, or R24K KD1-CT as previously described (Kempaiah and Kisiel, Apoptosis, 2008;13:702-715). Briefly, duplicate wells were treated with purified proteins (1 μM final concentration) and incubated at either 37° C. or 4° C. for different time periods. Two wells were also treated with phosphate-buffered saline (PBS) at each temperature to serve as a control. At selected time points, the media was removed and the cells were rinsed once with PBS. The cells were then washed with 1 M NaCl/PBS for 30 minutes with gentle shaking to dissociate cell surface-bound proteins (Iino et al., Arterioscler. Thromb. Vasc. Biol., 1998;18:40-46). Finally, the cells were rinsed once with PBS, trypsinized and harvested for the preparation of cell lysates and cell fractions.
# To prepare total cell lysates, 1-3×10^6 cells were lysed by sonication in 500 μl of lysis buffer containing of 125 mM Tris-HCl (pH 6.8), 2% SDS, 10% glycerol, 50 mM sodium phosphate, 1 mM phenylmethanesulphonylfluoride (PMSF) and protease inhibitor cocktail. The lysate was kept on ice for about 10 minutes, centrifuged for 15 minutes at 10,000×g at 4° C., and the supernatant recovered. To prepare nuclear and cytosolic fractions, approximately 2×10^6 cells were harvested and washed twice with cold PBS by centrifugation at 600×g in a Beckman J-6M/E centrifuge for seven minutes at 4° C. Five volumes of ice cold cytosolic buffer (10 mM Hepes pH 7.4, 0.33 M sucrose, 1 mM MgCl2, 0.1% Triton X-100 and protease inhibitor cocktail) was added to the cells and incubated on ice for 15 minutes. The cytosolic fraction was collected by centrifugation at 900×g for five minutes at 4° C. The resulting undissolved pellet was washed twice with cytosolic buffer followed by centrifugation at 900×g for five minutes at 4° C. Finally, the resulting pellet was resuspended in five volumes of ice cold buffer containing 0.45 M NaCl in 10 mM Hepes (pH 7.4) and protease inhibitor cocktail. The suspension was incubated on ice for an additional 15 minutes to dissolve the nucleus, and subsequently centrifuged at 18,000×g for five minutes at 4° C. The resulting supernatant was collected as the nuclear extract. All samples were boiled for three minutes in the presence of 5% SDS and stored at −20° C. until use.
# The cell lysate, cytosol and nuclear fractions were subjected to SDS-PAGE using 4-20% polyacrylamide gradient gels. […] The membranes were then probed with specific antibodies dissolved in fresh blocking buffer. Immunoreactive proteins were identified using HRP-conjugated secondary antibodies and a chemiluminescent reagent system essentially as described (Kempaiah et al., Mol. Cancer, 2007;6:20). The integrity of the cytosolic and nuclear fractions was verified using anti-α-tubulin and anti-histone-H1 antibodies, respectively (Guo et al., Am. J Physiol. Cell Physiol., 2007;292:2095-2102).
# The relative intensity of the Western blot bands were quantified using QUANTISCAN software (Biosoft, Cambridge, U.K.). The intensities are reported in arbitrary units (A.U.) obtained by subtracting the background value from the corresponding band's mean value.
molecule,measurement,setting,value
"TFPI-2: Human tissue factor pathway inhibitor-2, a 32 kDa Kunitz-type serine proteinase inhibitor (SEQ ID NO:1), recombinant from HEK 293 (protein, listed as Homo sapiens, tissue factor pathway inhibitor-2) DAAQEPTGNNAEICLLPLDYGPCRALLLRYYYDRYTQSCRQFLYGGCEGNANNFYTWEACDDACWRIEKVPKVCRLQVSVDDQCEGSTEKYFFNLSSMTCEKFFSGGCHRNRIENRFPDEATCMGFCAPKKIPSFCYSPKDEGLCSANVTRYYFNPRYRTCDAFTYTGCGGNDNNFVSREDCKRACAKALKKKKKMPKLRFASRIRKIRKKQF",Localization of overexpressed protein,HT-1080 cells [1],cytosolic and nuclear localization of TFPI-2
same,Induction of caspase-mediated apoptosis,human tumor cell lines,induce caspase-mediated apoptosis
same,Complex formation with importin-α (co-immunoprecipitation),importin-α,complexes of TFPI-2 and importin-α were immunoprecipitated by each antibody; also recorded: formed complexes with importin-α
same,Amount localized in the nucleus in 60 minutes at 4° C. (temperature dependence),HT-1080 cells [2]; 4° C. versus 37° C. (FIG. 1C),roughly equivalent to that observed in five minutes at 37 °C
same,Time of maximal cytosolic and nuclear localization,HT-1080 cells [2]; 24-72 hours incubation,48 h
same,Intracellular distribution of internalized protein,"HT-1080 cells [2]; 24-72 hours incubation, immunoblot (FIG. 1)",internalized and distributed in both the cytosolic and the nuclear fractions
same,Rate of internalization and translocation to the nucleus,"HT-1080 cells [2]; 37° C., within the first 15 minutes of offering (FIG. 1A)",rapidly internalized by these cells and translocated to the nucleus within minutes of offering; also recorded: rapidly internalized by HT-1080 cells and efficiently translocated to the nucleus
